* marks the point of attachment. HYNIC = NNc1ccc(C(=O)*)cn1
Tested on: human fibrin gel
Experiment: Gamma camera imaging of fibrin clot in rabbit femoral artery with 99mTc-labeled peptide
Type: in vivo
Conditions: tricine coligand
Protocol: Preliminary imaging experiments were performed with ^99mTc-labeled DX-328 using tricine as a coligand. A human fibrin gel was formed around a small wire placed in the femoral artery of a rabbit. The radiolabeled imaging agent was injected into the ear vein of the rabbit, and images were taken using a gamma camera.
The intensity of radioactivity in the pulmonary region is due to circulating imaging agent that has not yet cleared. By increasing the time between injection and imaging, the background in the pulmonary region and elsewhere should be reduced as the unbound imaging agent clears through the kidneys. Alternatively, the same effect could be achieved by decreasing the clearance time of the imaging agent. This could be accomplished by using EDDA as a coligand instead of tricine.

## Ac-WQPCPWESWTFCWDPGGGK(HYNIC)-NH2 (not fully specified (bridges); cysteine pairing not given here; also: 99mTc/tricine complex) [DX-328, HYNIC-labeled peptide, used 99mTc-labeled with tricine coligand]
rabbit
  route of excretion of agent unbound to the clot: renally excreted
Ear vein injection, human fibrin gel on wire in femoral artery
  visualisation of clot in left thigh versus clot-free right thigh: can clearly be seen

From patent publication US6984373B2, “Fibrin binding moieties useful as imaging agents” (Dyax Corp., priority 2000, dated 2006)
